Source: patent US20240052042A1 (Novartis, published 2024)

How the values were obtained:
Experiment in all cases: SET, FabCys
[1] = target: T1, rat NPR1 (rNPR1) (rat, UniProt P18910 29-469, limits assumed)
T1 construct: Soluble antigen
T1 sequence: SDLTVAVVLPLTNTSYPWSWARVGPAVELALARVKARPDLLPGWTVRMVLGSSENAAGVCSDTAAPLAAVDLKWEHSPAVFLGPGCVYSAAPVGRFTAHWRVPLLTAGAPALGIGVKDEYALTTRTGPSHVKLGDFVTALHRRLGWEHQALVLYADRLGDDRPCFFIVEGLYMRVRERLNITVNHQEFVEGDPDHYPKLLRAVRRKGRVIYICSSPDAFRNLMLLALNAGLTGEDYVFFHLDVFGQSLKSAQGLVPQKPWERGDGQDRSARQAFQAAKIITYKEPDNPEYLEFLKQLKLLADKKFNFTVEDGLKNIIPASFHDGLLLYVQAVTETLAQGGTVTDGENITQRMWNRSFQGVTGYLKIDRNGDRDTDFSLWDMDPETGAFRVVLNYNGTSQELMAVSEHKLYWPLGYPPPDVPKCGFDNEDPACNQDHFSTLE

[2] = target: T2, human Natriuretic Peptide Receptor 1 (hNPR1) (human, UniProt P16066 33-473, limits assumed)
T2 construct: pannings used NPR1-hFc; also called NPR1-hFc
T2 sequence: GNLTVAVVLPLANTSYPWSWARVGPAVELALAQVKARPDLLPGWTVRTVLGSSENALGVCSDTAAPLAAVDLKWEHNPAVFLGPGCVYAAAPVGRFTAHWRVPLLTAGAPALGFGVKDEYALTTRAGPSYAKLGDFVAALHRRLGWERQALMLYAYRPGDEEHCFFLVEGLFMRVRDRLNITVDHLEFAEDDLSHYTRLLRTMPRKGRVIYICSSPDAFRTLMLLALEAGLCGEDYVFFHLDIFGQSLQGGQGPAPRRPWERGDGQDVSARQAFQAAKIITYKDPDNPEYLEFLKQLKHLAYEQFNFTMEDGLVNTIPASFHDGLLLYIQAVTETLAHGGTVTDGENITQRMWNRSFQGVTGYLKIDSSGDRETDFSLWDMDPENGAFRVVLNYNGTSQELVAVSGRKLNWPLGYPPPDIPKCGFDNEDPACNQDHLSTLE

[3] = target: T3, hNPR1-ANP complex (human, UniProt P01160 124-151, limits assumed)
T3 construct: hNPR1 antigen in the presence of ANP; also called hNPR1 + 100 nM ANP
T3 sequence: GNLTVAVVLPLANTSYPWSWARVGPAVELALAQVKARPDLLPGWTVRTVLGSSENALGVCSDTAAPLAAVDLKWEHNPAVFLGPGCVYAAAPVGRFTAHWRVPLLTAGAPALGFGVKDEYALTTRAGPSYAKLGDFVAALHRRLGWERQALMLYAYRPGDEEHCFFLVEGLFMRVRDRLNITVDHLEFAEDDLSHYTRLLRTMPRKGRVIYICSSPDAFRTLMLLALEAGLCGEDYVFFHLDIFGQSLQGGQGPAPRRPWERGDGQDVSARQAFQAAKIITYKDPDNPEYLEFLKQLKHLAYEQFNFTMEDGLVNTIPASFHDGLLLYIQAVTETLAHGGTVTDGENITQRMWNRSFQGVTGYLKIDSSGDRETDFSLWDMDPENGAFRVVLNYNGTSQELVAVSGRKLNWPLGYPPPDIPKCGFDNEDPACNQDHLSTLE
T3 sequence (peptide): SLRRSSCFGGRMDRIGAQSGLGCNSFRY

[4] = target: T1, rat NPR1 (rNPR1); remark: listed apart in the source
[5] = target: T4, rNPR1-ANP complex (rat, UniProt P01160 124-151 (human entry), limits assumed)
T4 construct: rNPR1 antigen in the presence of ANP; also called rNPR1 + 100 nM ANP
T4 sequence: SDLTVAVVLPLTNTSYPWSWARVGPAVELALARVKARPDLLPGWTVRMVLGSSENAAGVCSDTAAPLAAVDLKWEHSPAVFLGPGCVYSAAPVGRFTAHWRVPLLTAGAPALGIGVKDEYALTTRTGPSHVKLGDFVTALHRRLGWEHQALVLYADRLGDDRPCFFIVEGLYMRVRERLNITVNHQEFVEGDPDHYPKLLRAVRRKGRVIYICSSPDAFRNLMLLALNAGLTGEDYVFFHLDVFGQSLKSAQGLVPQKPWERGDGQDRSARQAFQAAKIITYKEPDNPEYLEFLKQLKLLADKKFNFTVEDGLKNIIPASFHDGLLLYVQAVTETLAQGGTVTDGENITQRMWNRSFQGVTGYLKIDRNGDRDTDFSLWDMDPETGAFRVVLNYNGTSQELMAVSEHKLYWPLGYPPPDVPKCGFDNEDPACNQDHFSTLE
T4 sequence (peptide): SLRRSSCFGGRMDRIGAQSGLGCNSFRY

B1: XX04 (FabCys format) (Fab, V domains shown)
VH: QVQLLESGGGLVQPGGSLRLSCAASGFTFSSYWMNWVRQAPGKGLEWVSAISSDGSYTYYADSVKGRFTISRDNSKNTLYLQMNSLRAEDTAVYYCARDRYSMIYSYGAGAFDYWGQGTLVTVSS
VL: DIQMTQSPSSLSASVGDRVTITCRASQGISSYLAWYQQKPGKAPKLLIYTASTLQSGVPSRFSGSGSGTDFTLTISSLQPEDFATYYCQQEWVKPRTFGQGTKVEIK
notes: Monovalent FabCys
Question: With B1 as the binder, how does the “rat/human KD ratio” value [1] read?
Answer: < 5

Question: And the Kd [2]?
Answer: 32 nM

Question: What about the Kd [3] of the same binder?
Answer: 0.1 nM

Question: And the Kd [4]?
Answer: 3.3 nM

Question: And the Kd [5]?
Answer: 0.3 nM

B2: XX03 (FabCys format) (Fab, V domains shown)
VH: EVQLLESGGGLVQPGGSLRLSCAASGFTFSSYWMNWVRQAPGKGLEWVSVIESKGNYIFYADSVKGRFTISRDNSKNTLYLQMNSLRAEDTAVYYCARDRYSMIYSYGAGAFDYWGQGTLVTVSS
VL: DIQMTQSPSSLSASVGDRVTITCRASQGISSYLAWYQQKPGKAPKLLIYTASTLQSGVPSRFSGSGSGTDFTLTISSLQPEDFATYYCMQSYEKPRTFGQGTKVEIK
notes: Monovalent FabCys
Question: For B2, which “rat/human KD ratio” value [1] is on record?
Answer: < 5

Question: And the Kd [2]?
Answer: 22 nM

Question: What about the Kd [3] of the same binder?
Answer: 0.2 nM

Question: And the Kd [4]?
Answer: 1.1 nM

Question: What about the Kd [5] of the same binder?
Answer: 0.1 nM

B3: XX06 (FabCys format) (Fab, V domains shown)
VH: QVQLLESGGGLVQPGGSLRLSCAASGFTFSSYWMNWVRQAPGKGLEWVSAISSDGSYTYYADSVKGRFTISRDNSKNTLYLQMNSLRAEDTAVYYCARDRYSMIYSYGAGAFDYWGQGTLVTVSS
VL: DIQMTQSPSSLSASVGDRVTITCRASQGISSYLAWYQQKPGKAPKLLIYTASTLQSGVPSRFSGSGSGTDFTLTISSLQPEDFATYYCQQTWRKPRTFGQGTKVEIK
notes: Monovalent FabCys
Question: For B3, which “rat/human KD ratio” value [1] is on record?
Answer: < 5

Question: And the Kd [2]?
Answer: 10 nM

Question: What about the Kd [3] of the same binder?
Answer: 0.1 nM

Question: And the Kd [4]?
Answer: 2.3 nM

Question: And the Kd [5]?
Answer: 0.3 nM

B4: XX07 (FabCys format) (Fab, V domains shown)
VH: QVQLLESGGGLVQPGGSLRLSCAASGFTFSSYWMNWVRQAPGKGLEWVSAISSDGSYTYYADSVKGRFTISRDNSKNTLYLQMNSLRAEDTAVYYCARDRYSMIYSYGAGAFDYWGQGTLVTVSS
VL: DIQMTQSPSSLSASVGDRVTITCRASQGISSYLAWYQQKPGKAPKLLIYTASTLQSGVPSRFSGSGSGTDFTLTISSLQPEDFATYYCQQIWTVPRTFGQGTKVEIK
notes: Monovalent FabCys
Question: How did the “rat/human KD ratio” value [1] turn out when B4 was run?
Answer: < 5

Question: And the Kd [2]?
Answer: 21 nM

Question: What about the Kd [3] of the same binder?
Answer: 0.2 nM

Question: What about the Kd [4] of the same binder?
Answer: 2.9 nM

Question: And the Kd [5]?
Answer: 0.5 nM

B5: XX12 (FabCys format) (Fab, V domains shown)
VH: QVQLLESGGGLVQPGGSLRLSCAASGFTFSSYWMNWVRQAPGKGLEWVSAISSDGSYTYYADSVKGRFTISRDNSKNTLYLQMNSLRAEDTAVYYCARDRYSMIYSYGAGAFDYWGQGTLVTVSS
VL: DIQMTQSPSSLSASVGDRVTITCRASQGISSYLAWYQQKPGKAPKLLIYTASTLQSGVPSRFSGSGSGTDFTLTISSLQPEDFATYYCQQIWMAPRTFGQGTKVEIK
notes: Monovalent FabCys
Question: Which “rat/human KD ratio” value [1] does the source give for B5 here?
Answer: < 5

Question: And the Kd [2]?
Answer: 16 nM

Question: What about the Kd [3] of the same binder?
Answer: 0.2 nM

Question: What about the Kd [4] of the same binder?
Answer: 3 nM

Question: And the Kd [5]?
Answer: 0.5 nM
